# Changes are numbered by the printed parent chain.
# B1: PRT-371 (protein)
# chain: MSQTEDSESLQRLRDIEDFQAEKKKQNVVYTKWLDGVDVKDHDFRKIVDGNSAYYATPLLNGRGFYDINKDFNRDNDKCAAAVAANMFHYWLDRNRDNVDRFLRQNPEKHGIIELPDGQLKLSDFLNTYESDDGYRDKSKLFDFISENFNGPVWTDKLLDNYINGYAYNYKYGRTIEDSTKNTSKINFFKEVFNEKILTNNHSIRNQNEFSVLLIEALYTGKAIGLSYGPAGLRHSLGHIISVWGADLDADGNVVAIYVTDSDDKKLTIGDERVGLKRYKISTDDEGRLRLTAYEETHNTGGQIRGLWTLDTGKQAWADYFDKTEQTGTDQAEQ
# B2: PRT-364 (protein)
# chain: B1 chain with S52E, N76S, S179P, F210L, I215S
# B3: PRT-365 (protein)
# chain: B1 chain with S52E, N76S, T175L, S179P, F210L, I215S, L233T
# B4: PRT-374 (protein)
# chain: B1 chain with S52E, F210L, I215S
# B5: PRT-372 (protein)
# chain: B1 chain with Y170S, S236G
# B6: PRT-446 (protein)
# chain: MVTSVWTKGVTPPTDFIKGEDVFHAPYKAGQGWYDITKTFNGKDDLLCGAATAGNMLHWWFDQNKDQIEAYLKEHPEKQKINFNGEQMFDVKEAIDTKDDQTNSKLFEYFKEKAFPYLSTKHLGVFPDHVLDMFINGYRLSLTNHGPTPVKEGSKDPRGGIFDAVFTRGDQSKLLTSRHDFKEKTLKEISDLIKQELTEGKALALSHTYANVRINHVINLWGADFDSNGNLEAIYVTDSDSNASIGMKKYFVGVNSAGKVAISAKEIEDDNIGAQVLGLFTLSTGQDIWNQTNLEHHHHHH
# B7: PRT-480 (protein)
# chain: MITSVWTKGVTPPTDFIYGEDVLHAPYKAGQGWYDITKAFDGGDDLLCGAATAGNMLHWWFDQNKEQIENYLKKHPEKQKINFNGEQMFDVKEAIDTKDSQTNSELFNYFKEKAFPYLSTKHLGVFPDHVIDMFINGYRLSLTNHGPTPVKRGSKDPRGGIFDAVFTRGDQSKLLTNRHDLKNKTLNEISQLIKQELTEGKALGISHTYANVRINHVINLWGADFDAEGNLEAIYVTDSDSNASIGMKKYFVGVNSNGKVAISAKEIEEDNIGAQVLGLFTLSTGQDIWNQTNLEHHHHHH
# B8: PRT-456 (protein)
# chain: MITSVWTKGVTPPTDFIKGEDVFHAPYKAGQGWYDITKAFDGGDDLLCGAATAGNMLHWWFDQNKDQIEAYLKEHPEKQKINFNGEQMFDVKEAIDTKDDQTNSELFNYFKEKAFPYLSTKHLGVFPDHVLDMFINGYRLSLTNHGPTPVKEGSKDPRGGIFDAVFTRGDQSKLLTSRHDLKNKTLNEISQLIKQELTEGKALALSHTYANVRINHVINLWGADFDAEGNLEAIYVTDSDSNASIGMKKYFVGVNSAGKVAISAKEIEDDNIGAQVLGLFTLSTGQDIWNQTNLEHHHHHH
# B9: PRT-339 (protein)
# chain: MTITSVWTKGVTPPTPEDFRENNEDVLHAPYLANQGWYDITKAFDGKDNLLCGAATAGNMLHWWFDQNKEEIERYLKKHPEKQKIIFGNQELFDVKAAIDTKDSQTNSKLFDYFRDKAFPNLSARQLGVMPDLVLDMFINGYYLNLGKTQSTDVNRPYQDKDKRGGIFDAVFTRGDQTTLLTARHDLKNKGLNEISDLIKQELTEGKALALSHTYANVSINHVINLWGADFDAEGNLEAIYVTDSDANASIGMKKYFVGRNAHGKVAISAKKIEGDNIGAQVLGLFTLSTGQDQWQKLS
# B10: PRT-340 (protein)
# chain: B9 chain with G88N
# B11: PRT-341 (protein)
# chain: B9 chain with G88N, L92W, D112N, G147P, F257A, R260V, Q294I
# B12: PRT-347 (protein)
# chain: MSQTEDSESLQRLRDIEDFQAEKEMQNVVYTKWLDGVDVKDHDFRKIVDGNSAYYATPLLNGRGWYDINKDFNRDSDKCAAAVAANMFHYWLDINRDNVDRFLRQNPEKHGIIELPDGQLKLSDFLNTYESDHGYRDKSKLFDFISNNFNGPVWTDKLLDNYINGYAYNYKYGRTIEDPTKNTSKINFFKEVFNEKILTNNHSIRNQNEFSVLLSEALYTGKAIGLSYGPAGLRHSLGHIISVWGADLDADGNVVAIYVTDSDDKKLTIGDERVGLKRYKISTDDENRLRLTAYEETHNTGGQVRGLWTLDTGKYAWADYFDKTEQTGTDQAEQ
# B13: PRT-349 (protein)
# chain: B12 chain with E24K, M25D, S52I, W65L, N147E, F210L
# B14: PRT-363 (protein)
# chain: B1 chain with K24E, F65W, N76S, Y170S, S179P, S236G, I304V
# B15: PRT-357 (protein)
# chain: B12 chain with M25K, I94R, H133D, N287G, Y315Q
# B16: PRT-355 (protein)
# chain: B12 chain with E24K, S52E, W65F, N147E, T175L, F210L, L233T, V304I
# B17: PRT-356 (protein)
# chain: B12 chain with M25K, W65F, I94R, H133D, N287G, Y315Q
# B18: PRT-348 (protein)
# chain: B12 chain with E24K, M25D, S52I, N147E, S215I
# Biological target: pooled human IgG (human IgG1,2,3 and 4)
Protein,Enzyme Activity Endpoint Assay (purified): Fab′2,Enzyme Activity Endpoint Assay (purified): Fc,Enzyme Activity Endpoint Assay (purified): IgG,Enzyme Activity Endpoint Assay (purified): scIgG,Enzyme Activity Endpoint Assay: Fab′2,Enzyme Activity Endpoint Assay: Fc,Enzyme Activity Endpoint Assay: IgG,Enzyme Activity Endpoint Assay: scIgG
B1,623 ng/µL,373 ng/µL,0 ng/µL,295 ng/µL,–,–,–,–
B2,863 ng/µL,439 ng/µL,0 ng/µL,334 ng/µL,–,–,–,–
B3,735 ng/µL,385 ng/µL,0 ng/µL,312 ng/µL,–,–,–,–
B4,985 ng/µL,536 ng/µL,0 ng/µL,379 ng/µL,–,–,–,–
B5,–,–,–,–,0 ng/µL,218 ng/µL,122 ng/µL,560 ng/µL
B6,–,–,–,–,1130 ng/µL,427 ng/µL,0 ng/µL,0 ng/µL
B7,–,–,–,–,846 ng/µL,325 ng/µL,0 ng/µL,0 ng/µL
B8,–,–,–,–,1170 ng/µL,497 ng/µL,0 ng/µL,0 ng/µL
B9,721 ng/µL,167 ng/µL,0 ng/µL,288 ng/µL,–,–,–,–
B10,692 ng/µL,374 ng/µL,0 ng/µL,307 ng/µL,–,–,–,–
B11,832 ng/µL,199 ng/µL,0 ng/µL,318 ng/µL,–,–,–,–
B12,769 ng/µL,397 ng/µL,0 ng/µL,309 ng/µL,–,–,–,–
B13,677 ng/µL,215 ng/µL,0 ng/µL,286 ng/µL,–,–,–,–
B14,838 ng/µL,462 ng/µL,0 ng/µL,354 ng/µL,–,–,–,–
B15,724 ng/µL,389 ng/µL,0 ng/µL,313 ng/µL,–,–,–,–
B16,952 ng/µL,500 ng/µL,0 ng/µL,367 ng/µL,–,–,–,–
B17,780 ng/µL,418 ng/µL,0 ng/µL,289 ng/µL,–,–,–,–
B18,736 ng/µL,415 ng/µL,0 ng/µL,325 ng/µL,–,–,–,–
